Earlier results as cited in patent publication US7718413B2, “Glycosylation variants of BACE” (Elan Pharmaceuticals, Inc., priority 2003, dated 2010).
Non-standard residues stand in square brackets, D forms with d. No end group written: not given here. Sta = CC(C)C[C@H](N)[C@@H](O)CC(=O)O

Target: β-secretase (Homo sapiens, UniProt P56817)
Conditions: previous studies

β-secretase, sequence (P56817 46-501): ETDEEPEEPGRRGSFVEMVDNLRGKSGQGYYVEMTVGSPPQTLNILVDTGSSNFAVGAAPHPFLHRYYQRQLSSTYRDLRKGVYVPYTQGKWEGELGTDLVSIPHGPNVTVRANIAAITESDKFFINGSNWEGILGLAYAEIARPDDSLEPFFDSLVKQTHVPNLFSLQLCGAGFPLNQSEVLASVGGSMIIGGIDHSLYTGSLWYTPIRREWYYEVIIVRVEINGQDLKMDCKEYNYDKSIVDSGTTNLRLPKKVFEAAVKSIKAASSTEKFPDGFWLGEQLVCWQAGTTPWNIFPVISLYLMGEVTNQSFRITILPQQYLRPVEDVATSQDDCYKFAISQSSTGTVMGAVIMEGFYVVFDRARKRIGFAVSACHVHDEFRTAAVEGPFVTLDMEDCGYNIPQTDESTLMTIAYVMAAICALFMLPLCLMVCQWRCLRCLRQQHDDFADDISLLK

## KTEEISEVN[sta]VAEF (KTEEISEVN[Sta]VAEF) [P10-P4′staD→V]
  inhibitor of the enzyme (potency in words): reasonably potent inhibitor
